The labels stand for the following.
B1: glmS ribozyme (parent)
chain: AUAAAAGCGCCAGAACUACAGAAAUGUAGUUGACGAGGAGGAGGUUUAUCGAAUUUUCGGCGGAUGCCUCCAAA

Holding throughout (details): with glucosamine-6-phosphate
In data set [1] the parent is B1. Briefly: kcat; higher = faster cleavage; RNA array. The procedure, abridged:
(§1)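 Barcoded ribozyme variants, transcribed in situ by E. coli RNA polymerase on sequenced MiSeq chips, were followed via a hybridised Cy3 probe at 37 °C. Glucosamine-6-phosphate ranged from 40 μM to 10 mM in HEPES/KCl/Mg(OAc)2 buffer. kobs came from decay fits to per-tile medians, and kcat and KM from weighted Michaelis–Menten fits.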

Data set [2] covers variants of B1. Nature of the data set: self-cleavage kobs at 40 uM GlcN6P; higher = faster cleavage; RNA array. The procedure, abridged:
as §1

In data set [3] the parent is B1. Nature of the data set: self-cleavage kobs at 640 uM GlcN6P; higher = faster cleavage; RNA array. The procedure, abridged:
as §1

Variants of B1 are the subject of data set [4]. Nature of the data set: KM; higher = weaker cofactor use; RNA array. The procedure, abridged: as §1
Data set [5] covers variants of B1. Nature of the data set: self-cleavage kobs at 160 uM GlcN6P; higher = faster cleavage; RNA array. The procedure, abridged: as §1
In data set [6] the parent is B1. Briefly: self-cleavage kobs at 2500 uM GlcN6P; higher = faster cleavage; RNA array. The procedure, abridged: as §1
In data set [7] the parent is B1. Briefly: self-cleavage kobs at 10000 uM GlcN6P; higher = faster cleavage; RNA array. The procedure, abridged:
as §1

± gives the standard error. For some of these results: This sample holds only a part of the variants without activity.

Usually kcat stands for the maximal rate divided by the concentration of active sites. Take AUAAAAGUGUCAGAACUACAGAAAUGUAGUUGACGAGGAGGAGGUUUAUCGAAUUUUCGGCGGAUGCCUCCAAA [C8U C10U]: the kcat in data set [1] is less than 1e-05 s⁻¹. Further, in data set [2], the “self-cleavage kobs at 40 uM GlcN6P” value is less than 1e-05 s⁻¹. For the same variant, the “self-cleavage kobs at 640 uM GlcN6P” value in data set [3] is less than 1e-05 s⁻¹.
By KM is commonly meant the concentration of substrate that gives half-maximal velocity. With AUAAAAGCGCCGGAACUACAGAAAUGUAGUUGACGAGGAGGAGGUUUAUCGAUUUUUCGGCGGAUGCCUCCAAA [A12G A53U], the kcat in data set [1] is 0.00085 ± 8.4e-05 s⁻¹. Moreover, in data set [4], the KM was found to be 4340 ± 620 µM. For the same variant, the “self-cleavage kobs at 160 uM GlcN6P” value in data set [5] was found to be 2.34e-05 ± 7.6e-06 s⁻¹. In addition, the “self-cleavage kobs at 640 uM GlcN6P” value in data set [3] is 0.000112 ± 1e-05 s⁻¹. Further, the “self-cleavage kobs at 2500 uM GlcN6P” value in data set [6] is 0.000319 ± 3e-05 s⁻¹. For the same variant, the “self-cleavage kobs at 10000 uM GlcN6P” value in data set [7] was determined as 0.00058 ± 6.7e-05 s⁻¹.
Consider AUAAAAGCGCCAGAACUACAGAAAUGUAGGUGACGAGGAGGAGGUUUAUCGAAUUUUCGGCGGGUGCCUCCAAA [U30G A64G], for which the kcat in data set [1] worked out at 0.00607 ± 0.0017 s⁻¹. The KM in data set [4] came out at 1440 ± 540 µM. Moreover, the “self-cleavage kobs at 40 uM GlcN6P” value in data set [2] came out at 0.000178 ± 3.9e-05 s⁻¹. Further, the “self-cleavage kobs at 10000 uM GlcN6P” value in data set [7] is 0.0064 ± 0.0018 s⁻¹.
Take AUAAAAGCGCCAGAAUUACAGAAAUGUAGUUGACGAGGAGGAGGUUUAUCGAAUUUUCGGCGGGUGCCUCCAAA [C16U A64G]: in data set [1], the kcat stood at 0.018 ± 0.0074 s⁻¹. The “self-cleavage kobs at 40 uM GlcN6P” value in data set [2] amounted to 0.000665 ± 7.5e-05 s⁻¹. In addition, the “self-cleavage kobs at 160 uM GlcN6P” value in data set [5] was 0.00126 ± 0.00023 s⁻¹. The “self-cleavage kobs at 640 uM GlcN6P” value in data set [3] turned out to be 0.00457 ± 0.00072 s⁻¹. Further, the “self-cleavage kobs at 2500 uM GlcN6P” value in data set [6] was 0.0111 ± 0.0028 s⁻¹. Also, in data set [7], the “self-cleavage kobs at 10000 uM GlcN6P” value was found to be 0.0176 ± 0.0031 s⁻¹.
For AUAAAAGCGCCAGAACUACAGAAAUGUAGUUGACGAGGAGGAGGUUUAUCGAAUUUGCGGCGGAUGCCUCAAAA [U57G C71A], the kcat in data set [1] was found to be 3.11e-05 ± 9.7e-06 s⁻¹. The “self-cleavage kobs at 640 uM GlcN6P” value in data set [3] stood at 4.65e-05 ± 1.5e-05 s⁻¹. In addition, the “self-cleavage kobs at 2500 uM GlcN6P” value in data set [6] was 3.2e-05 ± 1.5e-05 s⁻¹.
Turning to AUAAAAGCGCCAGAACUACAGAAAUGUAGUCGACGAGGAGGAGGUUUAUCGAAUUUUCGGCGUAUGCCUCCAAA [U31C G63U], in data set [1], the kcat was less than 1e-05 s⁻¹. For the same variant, in data set [6], the “self-cleavage kobs at 2500 uM GlcN6P” value was less than 1e-05 s⁻¹.
For the variant AUAAAAGCGCCAGAAGUACAGAAAUGUAGUUAACGAGGAGGAGGUUUAUCGAAUUUUCGGCGGAUGCCUCCAAA [C16G G32A], the kcat in data set [1] was 0.0013 ± 0.00037 s⁻¹. For the same variant, the Michaelis-Menten constant (KM) in data set [4] came to 2870 ± 1300 µM. The “self-cleavage kobs at 160 uM GlcN6P” value in data set [5] is 7.04e-05 ± 1.7e-05 s⁻¹. The “self-cleavage kobs at 640 uM GlcN6P” value in data set [3] turned out to be 0.0003 ± 5.5e-05 s⁻¹. Besides, the “self-cleavage kobs at 2500 uM GlcN6P” value in data set [6] was 0.000434 ± 0.00011 s⁻¹. Moreover, in data set [7], the “self-cleavage kobs at 10000 uM GlcN6P” value was 0.00115 ± 0.00018 s⁻¹.
Turning to AUAAAAGCGCCGGAACUACAGAAAUGUAGUUGACGAGGAGGAGGUUUAUCGAAUUUUCGGCGCAUGCCUCCAAA [A12G G63C], in data set [1], the kcat was less than 1e-05 s⁻¹. Further, the “self-cleavage kobs at 160 uM GlcN6P” value in data set [5] is less than 1e-05 s⁻¹. Further, the “self-cleavage kobs at 10000 uM GlcN6P” value in data set [7] was less than 1e-05 s⁻¹.
On to AUAAAAGCGCCAGAUCUACAGAAAUGUAGUUGACGAGGACGAGGUUUAUCGAAUUUUCGGCGGAUGCCUCCAAA [A15U G40C], for which the kcat in data set [1] is 0.000282 ± 2.6e-05 s⁻¹. For the same variant, the KM in data set [4] turned out to be 1070 ± 230 µM. Moreover, the “self-cleavage kobs at 160 uM GlcN6P” value in data set [5] was determined as 3.7e-05 ± 1.5e-05 s⁻¹. Besides, the “self-cleavage kobs at 640 uM GlcN6P” value in data set [3] amounted to 0.00011 ± 1.4e-05 s⁻¹. Besides, the “self-cleavage kobs at 2500 uM GlcN6P” value in data set [6] was found to be 0.000162 ± 3.3e-05 s⁻¹. In data set [7], the “self-cleavage kobs at 10000 uM GlcN6P” value amounted to 0.000269 ± 3e-05 s⁻¹.
For AUAAAAGCGCCAGAACUACAGAAAUGUAGUUGACGAGGAGGAGGUUUAUCGAAUUUUCGGCGGAUUCCUUCAAA [G66U C70U], the kcat in data set [1] came to 0.00205 ± 0.00047 s⁻¹. The KM in data set [4] was determined as 1830 ± 590 µM. In addition, in data set [2], the “self-cleavage kobs at 40 uM GlcN6P” value stood at 6.67e-05 ± 8e-06 s⁻¹. For the same variant, the “self-cleavage kobs at 160 uM GlcN6P” value in data set [5] amounted to 0.000141 ± 1.7e-05 s⁻¹. Besides, in data set [3], the “self-cleavage kobs at 640 uM GlcN6P” value worked out at 0.000507 ± 4.8e-05 s⁻¹. Moreover, the “self-cleavage kobs at 2500 uM GlcN6P” value in data set [6] was determined as 0.00124 ± 0.00016 s⁻¹. Moreover, the “self-cleavage kobs at 10000 uM GlcN6P” value in data set [7] was determined as 0.00175 ± 0.00019 s⁻¹.
AUAAAAGCGCCAGAACUACAGAAAUGUAGUUGACGAGGAGGAGGUUUAUCGAAUUGUCGGCGGAUGGCUCCAAA [U56G C67G]: the kcat in data set [1] is 0.000876 ± 9.7e-05 s⁻¹. For the same variant, in data set [4], the KM came out at 1260 ± 220 µM. The “self-cleavage kobs at 40 uM GlcN6P” value in data set [2] turned out to be 3.84e-05 ± 5.8e-06 s⁻¹. Further, the “self-cleavage kobs at 160 uM GlcN6P” value in data set [5] turned out to be 9.74e-05 ± 8.1e-06 s⁻¹. Besides, in data set [3], the “self-cleavage kobs at 640 uM GlcN6P” value stood at 0.00028 ± 2.1e-05 s⁻¹. Also, the “self-cleavage kobs at 2500 uM GlcN6P” value in data set [6] is 0.000582 ± 5.1e-05 s⁻¹. Besides, in data set [7], the “self-cleavage kobs at 10000 uM GlcN6P” value was found to be 0.00081 ± 7.6e-05 s⁻¹.
Regarding AUAAAAGCGCCAGAACUACAGAAAUGUAGUUGACGAGGAGGAGGUCUAUCGAAUUUUCGGCGGAUGCCUCUAAA [U46C C71U], the kcat in data set [1] is 0.00342 ± 0.00056 s⁻¹. Also, the KM in data set [4] came to 1240 ± 290 µM. For the same variant, the “self-cleavage kobs at 40 uM GlcN6P” value in data set [2] is 0.000102 ± 1.5e-05 s⁻¹. The “self-cleavage kobs at 160 uM GlcN6P” value in data set [5] turned out to be 0.000375 ± 5.8e-05 s⁻¹. For the same variant, the “self-cleavage kobs at 640 uM GlcN6P” value in data set [3] is 0.00126 ± 0.00019 s⁻¹. Further, the “self-cleavage kobs at 2500 uM GlcN6P” value in data set [6] is 0.00309 ± 0.00044 s⁻¹. For the same variant, in data set [7], the “self-cleavage kobs at 10000 uM GlcN6P” value is 0.00266 ± 0.00038 s⁻¹.
Turning to AUAAAAGCGCCAGAAAUACAGAAAUGUAGUUGACGAGGAGGAGGUAUAUCGAAUUUUCGGCGGAUGCCUCCAAA [C16A U46A], in data set [1], the turnover number (kcat) came to 7.31e-05 ± 2e-06 s⁻¹. The KM in data set [4] stood at 547 ± 78 µM. Moreover, the “self-cleavage kobs at 2500 uM GlcN6P” value in data set [6] was 6.28e-05 ± 2e-05 s⁻¹. In addition, the “self-cleavage kobs at 10000 uM GlcN6P” value in data set [7] came to 6.82e-05 ± 1.6e-05 s⁻¹.
Regarding AUAAAAGCGCCAGAACUACAGAAAUGUAGUUGUCGAGGAGGAGGUUUAUCGAAUUUUCGGCGGAUGCUUCCAAA [A33U C68U], the kcat in data set [1] worked out at 1.75e-05 ± 1.6e-06 s⁻¹. Also, in data set [2], the “self-cleavage kobs at 40 uM GlcN6P” value is less than 1e-05 s⁻¹.
For the variant AUAAAUGCGCCAGAACUACAGAAAUGUAGUGGACGAGGAGGAGGUUUAUCGAAUUUUCGGCGGAUGCCUCCAAA [A6U U31G], in data set [1], the kcat amounted to 8.41e-05 ± 1e-05 s⁻¹. For the same variant, the “self-cleavage kobs at 40 uM GlcN6P” value in data set [2] is less than 1e-05 s⁻¹. For the same variant, the “self-cleavage kobs at 2500 uM GlcN6P” value in data set [6] stood at 7.42e-05 ± 1.9e-05 s⁻¹. In addition, the “self-cleavage kobs at 10000 uM GlcN6P” value in data set [7] turned out to be 7.27e-05 ± 1.2e-05 s⁻¹.
For AUAAAAGCGCCAGGACUACAGAAAUGUAGUUGACGAGGAGGUGGUUUAUCGAAUUUUCGGCGGAUGCCUCCAAA [A14G A42U], the kcat in data set [1] is 0.000931 ± 0.00011 s⁻¹. The KM in data set [4] was determined as 3180 ± 600 µM. The “self-cleavage kobs at 160 uM GlcN6P” value in data set [5] is 5.25e-05 ± 1.1e-05 s⁻¹. Further, in data set [3], the “self-cleavage kobs at 640 uM GlcN6P” value was 0.000152 ± 2.5e-05 s⁻¹. In addition, in data set [6], the “self-cleavage kobs at 2500 uM GlcN6P” value stood at 0.000357 ± 7e-05 s⁻¹. Moreover, the “self-cleavage kobs at 10000 uM GlcN6P” value in data set [7] worked out at 0.000738 ± 9.3e-05 s⁻¹.

(Values after the supplement of paper PMC7125110.)
